# Data: publication PMC8072286, “Gcn5-Related N-Acetyltransferases (GNATs) With a Catalytic Serine Residue Can Play Ping-Pong Too” (Frontiers in Molecular Biosciences, 2021)
# B1: PA3944 (Pseudomonas aeruginosa PAO1) (protein)
# chain: MNANLPPSAISELHGPRLLLRAWRDSDREAFAEMCADPQVMEFFPSVLDRAQSDALVDRVQAHFAERGYGPWALELPGEAAFIGFTGLFDVTMDVHFAPTVEIGWRLAPAYWGRGLAREAAETALDFAFERLRLPEVVAFTTPPNRRSWGLMERLGMRRDPAEDFDHPLLAADHPMRRHILYRVDAARWAER
# notes: heterologous expression; N-terminal polyhistidine tag kept for kinetics, removed for crystallization; monomer in solution
# Substrate: CCCCCCCC(=O)N(C)CCN
# Assay: steady-state acetyltransferase assay, substrate saturation
# Type: biochemical, Pseudomonas aeruginosa
# Conditions: AcCoA held at 0.5 mM; NANMO 0-3.5 mM, used as hydrochloride
# Description: steady-state acetyltransferase assay, substrate saturation on PA3944
protein,measurement,value
B1,Km,1070 ± 30 µM
same,kcat,0.41 s⁻¹
same,kcat/Km,380 M⁻¹ s⁻¹
